Source: patent publication US20260132197A1 (NANJING LEGEND BIOTECH, published 2026)

How the values were obtained:
[1] = target: T1, wild type human CD47 (Acro Biosystems, cat. no. CD7-H5227) (human, UniProt Q08722 19-139); test: SPR, IgG captured, CD47 in flow; exp 3;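 further: other target is a CD47 mutein carrying C33G, used to obtain true monovalent affinity, with kon and koff fitted from SPR binding curves and KD derived from both rates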
T1 construct: Bought protein used as SPR analyte; also called Human CD47 wt; wild-type CD47

[2] = target: T2, Human CD47-C33G (human, UniProt Q08722 19-135); test: SPR, IgG captured, CD47 in flow; exp 3;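 further: other target is a CD47 mutein carrying C33G, used to obtain true monovalent affinity, with kon and koff fitted from SPR binding curves and KD derived from both rates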
T2 construct: also called CD47 mutein with C33G mutation

[3] = target: T1, wild type human CD47 (Acro Biosystems, …); test: SPR, IgG captured, CD47 in flow; exp 2;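 further: rates derived from association and dissociation curves, KD estimated from them, C33G mutein used to avoid CD47 IgV homodimers for true monovalent affinity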
[4] = target: T2, Human CD47-C33G; test: SPR, IgG captured, CD47 in flow; exp 2;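 further: rates derived from association and dissociation curves, KD estimated from them, C33G mutein used to avoid CD47 IgV homodimers for true monovalent affinity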
[5] = target: T1, wild type human CD47 (Acro Biosystems, …); test: SPR, IgG captured, CD47 in flow; exp 4;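 further: biacore T200 SPR using IgG from transfected HEK293 supernatants against wild-type human CD47 or its C33G mutein, rates fitted to association and dissociation curves, KD estimated from them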
[6] = target: T2, Human CD47-C33G; test: SPR, IgG captured, CD47 in flow; exp 4;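 further: biacore T200 SPR using IgG from transfected HEK293 supernatants against wild-type human CD47 or its C33G mutein, rates fitted to association and dissociation curves, KD estimated from them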
[7] = target: T3, human CD47 on cells (SHP-77 tumor cells, human red blood cells, CCRF-CEM cells, human CD47 CHO-K1 stable cell … (human, UniProt Q08722 19-323)); test: flow cytometry on human RBCs;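 further: antibody binding measured by flow cytometry as geometric mean fluorescence intensity over a range of antibody concentrations, with EC50 and maximum taken from a sigmoidal dose-response fit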
T3 construct: whole, on cells; also called RBC

[8] = target: T3, human CD47 on cells (SHP-77 tumor …); test: flow cytometry on SHP-77 cells

Binder | Kd [3] [nM] | koff [3] [s⁻¹] | kon [3] [M⁻¹ s⁻¹] | Kd [4] [nM] | koff [4] [s⁻¹] | kon [4] [M⁻¹ s⁻¹] | Kd [5] [nM] | koff [5] [s⁻¹] | kon [5] [M⁻¹ s⁻¹] | Kd [6] [nM] | koff [6] [s⁻¹] | kon [6] [M⁻¹ s⁻¹] | further results
108VH10.Ml / 108VL10.Me (antibody, V domains shown, 4D5-framework series; constant regions not restated for this series; also called VH10.Ml VL10.Me) VH: EVQLVESGGGLVQPGGSLRLSCAASGFTFSHHWIHWVRQAPGKGLEWVAMIDASDSETRLSQKFKGRFTISADTSKNTAYLQMNSLRAEDTAVYYCSRLGRYYFDYWGQGTLVTVSS VL: DIQMTQSPSSLSASVGDRVTITCRASQSISSYLNWYQQKPGKAPKLLIYGASSRYSGVPSRFSGSRSGTDFTLTISSLQPEDFATYYCGESYGHLYTFGQGTKVEIK |  |  |  |  |  |  |  |  |  |  |  |  | Kd [1]: 5.6 nM; koff [1]: 0.0034 s⁻¹; kon [1]: 610000 M⁻¹ s⁻¹; Kd [2]: 36 nM; koff [2]: 0.0073 s⁻¹; kon [2]: 200000 M⁻¹ s⁻¹
108VH10.Mj / 108VL10.Me (antibody, V domains shown, 4D5-framework series; constant regions not restated for this series; also called VH10.Mj VL10.Me) VH: EVQLVESGGGLVQPGGSLRLSCAASGFTFSHHWIHWVRQAPGKGLEWVAMIDASDSETRLSQSFKDRFTISADTSKNTAYLQMNSLRAEDTAVYYCSRLGRYYFDYWGQGTLVTVSS VL: DIQMTQSPSSLSASVGDRVTITCRASQSISSYLNWYQQKPGKAPKLLIYGASSRYSGVPSRFSGSRSGTDFTLTISSLQPEDFATYYCGESYGHLYTFGQGTKVEIK |  |  |  |  |  |  |  |  |  |  |  |  | Kd [1]: 5.8 nM; koff [1]: 0.0035 s⁻¹; kon [1]: 610000 M⁻¹ s⁻¹; Kd [2]: 38 nM; koff [2]: 0.0078 s⁻¹; kon [2]: 210000 M⁻¹ s⁻¹
108VH10 / 108VL10.Ma (antibody, V domains shown, 4D5-framework series; constant regions not restated for this series; also called VH10 VL10.Ma) VH: EVQLVESGGGLVQPGGSLRLSCAASGYSFTHHWIHWVRQAPGKGLEWVAMIDPSDSETRLSQKFKDRFTISADTSKNTAYLQMNSLRAEDTAVYYCSRLGRYYFDYWGQGTLVTVSS VL: DIQMTQSPSSLSASVGDRVTITCRASQSISSYLNWYQQKPGKAPKLLIYGASNRYTGVPSRFSGSRSGTDFTLTISSLQPEDFATYYCGESYGHLYTFGQGTKVEIK | 1.4 | 0.0015 | 1e+06 | 8 | 0.0029 | 360000 |  |  |  |  |  |  | 
108VH5.M20 / 108VL1.M5 (antibody, human IgG4 S228P, kappa, V domains shown, Full-length IgG4 (S228P), kappa; also called VH5.M20 VL1.M5) VH: EVQLVQSGAEVKKPGASVKVSCKASGYTFTHHWMHWVRQAPGQGLEWMGMIDASDAETRYAQKFQGRVTMTRDTSTSTVYMELSSLRSEDTAVYYCARLGRYYFDYWGQGTLVTVSS VL: EIVLTQSPATLSLSPGERATLSCRASQSVSSYLAWYQQKPGQAPRLLIYGASNRATGIPARFSGSGSGTDFTLTISSLEPEDFAVYYCGESYGHLYTFGGGTKVEIKR |  |  |  |  |  |  | 3 | 0.0022 | 710000 | 15 | 0.0045 | 310000 | 
108VH5.M26 / 108VL1.M5 (antibody, human IgG4 S228P, kappa, V domains shown, Full-length IgG4 (S228P), kappa; also called VH5.M26 VL1.M5) VH: EVQLVQSGAEVKKPGASVKVSCKASGYTFTHHWMHWVRQAPGQGLEWMGMIDASDVETRYAQKFQGRVTMTRDTSTSTVYMELSSLRSEDTAVYYCARLGRYYFDYWGQGTLVTVSS VL: EIVLTQSPATLSLSPGERATLSCRASQSVSSYLAWYQQKPGQAPRLLIYGASNRATGIPARFSGSGSGTDFTLTISSLEPEDFAVYYCGESYGHLYTFGGGTKVEIKR |  |  |  |  |  |  | 4.6 | 0.0026 | 570000 | 23 | 0.0054 | 240000 | 
108VH5.M24 / 108VL1.M5 (antibody, human IgG4 S228P, kappa, V domains shown, Full-length IgG4 (S228P), kappa; also called VH5.M24 VL1.M5) VH: EVQLVQSGAEVKKPGASVKVSCKASGYTFTHHWMHWVRQAPGQGLEWMGMIDASDLETRYAQKFQGRVTMTRDTSTSTVYMELSSLRSEDTAVYYCARLGRYYFDYWGQGTLVTVSS VL: EIVLTQSPATLSLSPGERATLSCRASQSVSSYLAWYQQKPGQAPRLLIYGASNRATGIPARFSGSGSGTDFTLTISSLEPEDFAVYYCGESYGHLYTFGGGTKVEIKR |  |  |  |  |  |  | 5.7 | 0.003 | 520000 | 31 | 0.0067 | 220000 | EC50 [7]: 4 nM; Fitted Maximal MFI [7]: 29200 MFI; EC50 [8]: 9.8 nM; Fitted Maximal MFI [8]: 38700 MFI

Now from value to binder, other results behind:

Kd [3] [nM] | koff [3] [s⁻¹] | kon [3] [M⁻¹ s⁻¹] | Kd [4] [nM] | koff [4] [s⁻¹] | kon [4] [M⁻¹ s⁻¹] | Kd [5] [nM] | koff [5] [s⁻¹] | kon [5] [M⁻¹ s⁻¹] | Kd [6] [nM] | koff [6] [s⁻¹] | kon [6] [M⁻¹ s⁻¹] | Binder | further results
8.7 | 0.002 | 230000 | 57 | 0.0046 | 82000 |  |  |  |  |  |  | 108VH10.Ma / 108VL10.M1 (antibody, V domains shown, 4D5-framework series; constant regions not restated for this series; also called VH10.Ma VL10.M1) VH: EVQLVESGGGLVQPGGSLRLSCAASGFTFSHHWIHWVRQAPGKGLEWVAMIDPSDSETRLSQKFKDRFTISADTSKNTAYLQMNSLRAEDTAVYYCSRLGRYYFDYWGQGTLVTVSS VL: DIQMTQSPSSLSASVGDRVTITCRASENVGTYISWYQQKPGKAPKLLIYGASNRYTGVPSRFSGSRSGTDFTLTISSLQPEDFATYYCGESYGHLYTFGQGTKVEIK | 
10 | 0.002 | 190000 | 64 | 0.0044 | 69000 |  |  |  |  |  |  | 108VH10 / 108VL10.Mc (antibody, V domains shown, 4D5-framework series; constant regions not restated for this series; also called VH10 VL10.Mc) VH: EVQLVESGGGLVQPGGSLRLSCAASGYSFTHHWIHWVRQAPGKGLEWVAMIDPSDSETRLSQKFKDRFTISADTSKNTAYLQMNSLRAEDTAVYYCSRLGRYYFDYWGQGTLVTVSS VL: DIQMTQSPSSLSASVGDRVTITCRASENVGTYISWYQQKPGKAPKLLIYGASSRYTGVPSRFSGSRSGTDFTLTISSLQPEDFATYYCGESYGHLYTFGQGTKVEIK | 
